Reference: article doi:10.1101/2020.10.02.311787 (bioRxiv, 2020)

B1: anti-PRL-3 nanobody 19 (VHH)
VHH: QVQLQESGGGLVQAGGSLGLSCAASRSIFNFKVMGWYRQAPGKQRELVASITNSDNTYYADSVKGRFTISREDAKTTMYLEMNSLKPEDTAVYRCYGQNWGLRATTYWGQGTQVTVSS
B2: anti-PRL-3 nanobody 84 (VHH)
VHH: QVQLQESGGGLVQAGGSLGLSCAASRSIFNFKVMGWYRQAPGKQRELVASITNSDNTYYADSVKGRFTISREDAKTTMYLEMNSLKPEDTTVYRCYGQNWGLRATTYWGQGTQVTVSS
B3: anti-PRL-3 nanobody 4 (VHH)
VHH: QVQLQESGGGLVQTGGSLRLSCAASQSTYNFDVMGWYRLAPGKQREFLTSITNGGNIYYADSVKGRFTIARDDSKTTMYLEMNSLKPEDTAVYTCYGQTHKPRVTTSWGQGTQVTVSS
B4: anti-PRL-3 nanobody 16 (VHH)
VHH: QVQLQESGGGLVQTGGSLRLSCAASQSTFNFDVMGWYRLAPGKQREFLTSITNGGNIYYADSVKGRFTTARDDSKTTMYLEMNSLKPEDTAVYTCYGQTHKPRVTTSWGQGTQVTVSS
B5: anti-PRL-3 nanobody 91 (VHH)
VHH: QVQLQESGGGLVQTGGSLRLSCAASQSTFNFDVMGWYRLAPGKQREFLTSITNGGNIYYADSVKGRFTIARDDSKTTMYLEMNSLKPEDTAVYTCYGQTHKPRVTTSWGQGTQVTVSS
B6: anti-PRL-3 nanobody 10 (VHH)
VHH: QVQLQESGGGLVQTGGSLRLSCAASQSTFNFNVMGWYRLAPGKQREFLPSLTNGGNIYYADSVKGRFTIARDDSKTTTYLEMNSLKPEDTAVYTCYGQTHKPRVTTSWGQGTQVTVSS
B7: anti-PRL-3 nanobody 26 (VHH)
VHH: QVQLQESGGGLVQPGGSLKLSCVVTGLHYYTEGWFRQAPGKEREGVSCISSSDGRTDYIDSVKGRFTISEDNDNKTVYLQMNTLKPDDTGVYYCVAERGPRGSTWWETYDYWGQGTHVTVSS

Assays:
[1] = molecular target: T1, Phosphatase of Regenerating Liver-3 (PRL-3), recombinant (Homo sapiens, UniProt O75365); test: BLI
T1 sequence (O75365 whole entry): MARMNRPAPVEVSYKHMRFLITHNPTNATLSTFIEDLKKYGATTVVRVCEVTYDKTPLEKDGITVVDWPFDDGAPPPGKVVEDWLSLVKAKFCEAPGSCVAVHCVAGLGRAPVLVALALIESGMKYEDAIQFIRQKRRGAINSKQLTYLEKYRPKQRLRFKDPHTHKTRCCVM

[2] = molecular target: 3XFLAG-PRL-3 in HEK293T cells (Homo sapiens, UniProt O75365); test: pull-down
3XFLAG-PRL-3 in HEK293T cells, sequence (O75365 whole entry): as above

[3] = molecular target: GFP-PRL-3 in HCT116 cells (Homo sapiens, UniProt O75365); test: immunostaining of cells or tissue
GFP-PRL-3 in HCT116 cells, sequence (O75365 whole entry): as above

[4] = molecular target: T1, Phosphatase of Regenerating Liver-3 …; test: ELISA
[5] = molecular target: 3XFLAG-tagged PRL-3, recombinant (human, UniProt O75365); test: co-IP
3XFLAG-tagged PRL-3, recombinant, sequence (O75365 whole entry): as above

[6] = molecular target: GFP-PRL-2 in HCT116 cells (Homo sapiens, UniProt Q12974); test: immunostaining of cells or tissue
GFP-PRL-2 in HCT116 cells, sequence (Q12974 whole entry): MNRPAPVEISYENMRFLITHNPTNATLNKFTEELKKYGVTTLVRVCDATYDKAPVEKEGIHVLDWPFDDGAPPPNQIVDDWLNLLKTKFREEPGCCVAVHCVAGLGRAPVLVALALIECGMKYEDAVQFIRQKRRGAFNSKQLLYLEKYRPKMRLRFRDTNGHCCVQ

[7] = molecular target: 3XFLAG-PRL-3 in HCT116 cells (Homo sapiens, UniProt O75365); test: immunostaining of cells or tissue
3XFLAG-PRL-3 in HCT116 cells, sequence (O75365 whole entry): as the sequence (O75365 whole entry) above

[8] = molecular target: untagged (wild-type) PRL-3 in HCT116 cells (Homo sapiens, UniProt O75365); test: immunostaining of cells or tissue
untagged (wild-type) PRL-3 in HCT116 cells, sequence (O75365 whole entry): as above

[9] = molecular target: GFP-PRL-1 in HCT116 cells (Homo sapiens, UniProt Q93096); test: immunostaining of cells or tissue
GFP-PRL-1 in HCT116 cells, sequence (Q93096 whole entry): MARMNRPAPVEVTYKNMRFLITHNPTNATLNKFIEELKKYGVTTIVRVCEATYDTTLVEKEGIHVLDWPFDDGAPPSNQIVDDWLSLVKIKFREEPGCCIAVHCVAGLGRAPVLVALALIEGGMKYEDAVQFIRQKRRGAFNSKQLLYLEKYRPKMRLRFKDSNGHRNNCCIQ

[10] = molecular target: T1, Phosphatase of Regenerating Liver-3 …; test: HDX-MS

Binder	Kd [1] [nM]	binding result [2]	binding result [3]	binding result [4]	binding result [5]	binding result [6]	binding result [7]	binding result [8]	binding result [9]	binding result [10]
B1	98.4									
B2		binds	binds	binds						
B3		binds	binds	binds						
B4		binds	binds	binds						
B5		binds	binds		binds	no binding (tested: 1:100 of 1 mg/mL)	binds	binds	no binding (tested: 1:100 of 1 mg/mL)	binds
B6		binds	binds	binds		no binding (tested: 1:100 of 1 mg/mL)			no binding (tested: 1:100 of 1 mg/mL)	
B7	28.9					no binding (tested: 1:100 of 1 mg/mL)			no binding (tested: 1:100 of 1 mg/mL)	
